Source: patent US9492508B2, “Parathyroid hormone analogs and uses thereof” (The General Hospital Corporation, priority 2010, dated 2016)
Values belong to the binder of their own block, whether it stands above or below them. Square brackets hold non-standard residues; d marks the D form. Ends that are not written are not given here. hArg = N=C(N)NCCCC[C@H](N)C(=O)O; Aib = CC(C)(N)C(=O)O

What was measured:
rat PTH receptor [1] = molecular target: T1, rat PTH receptor (rat, UniProt P25961 27-591, limits assumed); experiment: radioligand displacement, rat PTHR1, RG conformation
T1 construct: R0 and RG conformations assayed separately by the method of WO 2009/017809 or a similar one; also called rat PTHR1
T1 sequence (looked up): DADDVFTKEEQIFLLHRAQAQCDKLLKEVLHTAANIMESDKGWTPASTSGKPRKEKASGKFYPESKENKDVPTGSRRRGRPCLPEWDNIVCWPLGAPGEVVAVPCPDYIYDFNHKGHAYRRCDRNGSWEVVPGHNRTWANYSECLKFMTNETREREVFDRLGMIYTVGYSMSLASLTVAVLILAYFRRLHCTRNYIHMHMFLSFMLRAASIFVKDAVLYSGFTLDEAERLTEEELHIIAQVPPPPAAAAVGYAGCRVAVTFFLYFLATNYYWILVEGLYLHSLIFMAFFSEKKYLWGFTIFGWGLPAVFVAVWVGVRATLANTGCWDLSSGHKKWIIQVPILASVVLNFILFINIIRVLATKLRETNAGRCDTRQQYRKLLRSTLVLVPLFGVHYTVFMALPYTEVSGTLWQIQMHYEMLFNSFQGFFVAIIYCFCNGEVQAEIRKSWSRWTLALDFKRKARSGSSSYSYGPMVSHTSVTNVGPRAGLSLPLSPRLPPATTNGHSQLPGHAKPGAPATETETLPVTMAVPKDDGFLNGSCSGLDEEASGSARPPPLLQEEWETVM

human PTH-1 receptor [2] = molecular target: T2, human PTH-1 receptor (human, UniProt Q03431 27-593); experiment: radioligand competition, human PTHR1 in COS-7 membranes, RG conformation
T2 construct: whole, on cells; also called human PTHR1; human PTH receptor
T2 sequence (looked up): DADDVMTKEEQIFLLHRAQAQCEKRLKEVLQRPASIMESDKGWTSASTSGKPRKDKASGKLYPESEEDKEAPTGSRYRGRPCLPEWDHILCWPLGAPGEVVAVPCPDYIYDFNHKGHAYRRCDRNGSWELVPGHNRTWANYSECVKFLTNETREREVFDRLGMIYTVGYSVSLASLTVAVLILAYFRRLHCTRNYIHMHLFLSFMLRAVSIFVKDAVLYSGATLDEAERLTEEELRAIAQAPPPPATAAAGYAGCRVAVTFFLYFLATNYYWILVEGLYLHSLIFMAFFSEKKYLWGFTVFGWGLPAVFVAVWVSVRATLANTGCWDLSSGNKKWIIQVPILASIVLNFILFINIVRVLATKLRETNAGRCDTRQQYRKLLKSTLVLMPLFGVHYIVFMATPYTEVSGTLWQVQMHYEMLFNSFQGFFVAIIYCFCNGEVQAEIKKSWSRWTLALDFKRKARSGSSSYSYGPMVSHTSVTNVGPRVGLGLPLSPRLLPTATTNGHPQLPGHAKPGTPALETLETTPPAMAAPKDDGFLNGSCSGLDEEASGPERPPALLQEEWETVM
Description: (§1) Here, competition binding assays for the R⁰ and RG PTHR1 conformation were performed in membranes prepared from transfected COS-7 cells, as described by Dean et al., Mol Endocrinol 22:156-66, 2008. Data are means of three experiments, each performed in duplicate. Curves were fit to the data using Graph-Pad Prism 4.0.

rat PTH receptor [3] = molecular target: T1, rat PTH receptor; experiment: radioligand displacement, rat PTHR1, R0 conformation
human PTH-1 receptor [4] = molecular target: T2, human PTH-1 receptor; experiment: radioligand competition, human PTHR1 in COS-7 membranes, R0 conformation
Description: as §1

IC50 (rat PTH receptor [1]): 700 pM
IC50 (human PTH-1 receptor [2]): 220 pM
IC50 (rat PTH receptor [3]): 210 pM
IC50 (human PTH-1 receptor [4]): 680 pM
B1: SP-PTH-AAK ([Ala1,3,12,18,22,Gln10,Arg11,Trp14,Lys26]PTH(1-14)/PTHrP(15-36)) (peptide)
peptide: AVAEIQLMHQRAKWIQDARRRAFLHKLIAEIHTAEI-OH
notes: Synthetic hybrid analog of human PTH(1-14) and human PTHrP(15-36); also called Mc-PTH(1-14)/AAK-rP(15-36)OH; SP-AAK

IC50 (rat PTH receptor [1]): 450 pM
IC50 (human PTH-1 receptor [2]): 370 pM
IC50 (human PTH-1 receptor [4]): 940 pM
B2: Aib-SP-PTH-AAK ([Ala1,12,18,22,Aib3,Gln10,Har11,Trp14,Lys26]PTH(1-14)/PTHrP(15-36)) (peptide)
peptide: AV[Aib]EIQLMHQ[hArg]AKWIQDARRRAFLHKLIAEIHTAEI-NH2
modifications: N-terminus assumed
SMILES: CC[C@H](C)[C@H](NC(=O)[C@H](CCC(=O)O)NC(=O)[C@H](C)NC(=O)[C@@H](NC(=O)[C@H](Cc1c[nH]cn1)NC(=O)[C@@H](NC(=O)[C@H](CCC(=O)O)NC(=O)[C@H](C)NC(=O)[C@@H](NC(=O)[C@H](CC(C)C)NC(=O)[C@H](CCCCN)NC(=O)[C@H](Cc1c[nH]cn1)NC(=O)[C@H](CC(C)C)NC(=O)[C@H](Cc1ccccc1)NC(=O)[C@H](C)NC(=O)[C@H](CCCNC(=N)N)NC(=O)[C@H](CCCNC(=N)N)NC(=O)[C@H](CCCNC(=N)N)NC(=O)[C@H](C)NC(=O)[C@H](CC(=O)O)NC(=O)[C@H](CCC(N)=O)NC(=O)[C@@H](NC(=O)[C@H](Cc1c[nH]c2ccccc12)NC(=O)[C@H](CCCCN)NC(=O)[C@H](C)NC(=O)[C@H](CCCCNC(=N)N)NC(=O)[C@H](CCC(N)=O)NC(=O)[C@H](Cc1c[nH]cn1)NC(=O)[C@H](CCSC)NC(=O)[C@H](CC(C)C)NC(=O)[C@H](CCC(N)=O)NC(=O)[C@@H](NC(=O)[C@H](CCC(=O)O)NC(=O)C(C)(C)NC(=O)[C@@H](NC(=O)[C@H](C)N)C(C)C)[C@@H](C)CC)[C@@H](C)CC)[C@@H](C)CC)[C@@H](C)CC)[C@@H](C)O)C(N)=O
notes: Synthetic hybrid analog of human PTH(1-14) and human PTHrP(15-36); also called Super-potent Aib-AAK PTH; M-PTH(1-14)AAK-/rP(15-36)NH2

IC50 (rat PTH receptor [1]): 900 pM
IC50 (human PTH-1 receptor [2]): 450 pM
IC50 (rat PTH receptor [3]): 1500 pM
IC50 (human PTH-1 receptor [4]): 950 pM
B3: M-PTH(1-34) (peptide)
peptide: AV[Aib]EIQLMHQ[hArg]AKWLNSMRRVEWLRKKLQDVHNF-NH2
modifications: N-terminus assumed
SMILES: CC[C@H](C)[C@H](NC(=O)[C@H](CCC(=O)O)NC(=O)C(C)(C)NC(=O)[C@@H](NC(=O)[C@H](C)N)C(C)C)C(=O)N[C@@H](CCC(N)=O)C(=O)N[C@@H](CC(C)C)C(=O)N[C@@H](CCSC)C(=O)N[C@@H](Cc1c[nH]cn1)C(=O)N[C@@H](CCC(N)=O)C(=O)N[C@@H](CCCCNC(=N)N)C(=O)N[C@@H](C)C(=O)N[C@@H](CCCCN)C(=O)N[C@@H](Cc1c[nH]c2ccccc12)C(=O)N[C@@H](CC(C)C)C(=O)N[C@@H](CC(N)=O)C(=O)N[C@@H](CO)C(=O)N[C@@H](CCSC)C(=O)N[C@@H](CCCNC(=N)N)C(=O)N[C@@H](CCCNC(=N)N)C(=O)N[C@H](C(=O)N[C@@H](CCC(=O)O)C(=O)N[C@@H](Cc1c[nH]c2ccccc12)C(=O)N[C@@H](CC(C)C)C(=O)N[C@@H](CCCNC(=N)N)C(=O)N[C@@H](CCCCN)C(=O)N[C@@H](CCCCN)C(=O)N[C@@H](CC(C)C)C(=O)N[C@@H](CCC(N)=O)C(=O)N[C@@H](CC(=O)O)C(=O)N[C@H](C(=O)N[C@@H](Cc1c[nH]cn1)C(=O)N[C@@H](CC(N)=O)C(=O)N[C@@H](Cc1ccccc1)C(N)=O)C(C)C)C(C)C
notes: M residues: Ala1,12, Aib3, Gln10, homoArg11, Trp14, Arg19; also called M-PTH(1-34).NH2; MGH# 1577
